Test results from PMC3467265.

Molecular target: Cryptosporidium parvum pyruvate kinase (Cryptosporidium parvum)
Experiment: SEC; analytical Superdex 200 10/30, partially purified CpPyK, elution compared with catalase (Mr 232 kDa) run separately; fractions checked by SDS-PAGE

stoichiometry N: 4
Substance: Cryptosporidium parvum pyruvate kinase (enzyme)
